Data published in patent publication US20240343803A1 (SHANDONG SIMCERE BIOPHARMACEUTICAL, published 2024).

T1: Full-length human TIGIT on CHO-K1 cells (CHO-K1 human TIGIT) (human, UniProt Q495A1 22-244)
T1 construct: NCBI XP_024309156.1; the entry includes the signal peptide (limits not recoverable); The strain (high, medium, low) is named under assay; also called high expression strain 1D2; medium expression strain 2D10
T1 sequence: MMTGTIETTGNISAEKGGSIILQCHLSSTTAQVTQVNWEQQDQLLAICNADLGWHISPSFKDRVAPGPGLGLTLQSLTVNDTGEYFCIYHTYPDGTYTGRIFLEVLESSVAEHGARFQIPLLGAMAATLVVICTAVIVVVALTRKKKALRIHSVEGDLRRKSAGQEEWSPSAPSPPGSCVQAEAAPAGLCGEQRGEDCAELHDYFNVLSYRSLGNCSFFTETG

T2: Fusion protein of extracellular domain of human TIGIT and mouse IgG2a Fc fragment (human TIGIT ECD-mFc) (human)
T2 construct: The entry includes the signal peptide (limits not recoverable) and the mouse IgG2a Fc
T2 chain: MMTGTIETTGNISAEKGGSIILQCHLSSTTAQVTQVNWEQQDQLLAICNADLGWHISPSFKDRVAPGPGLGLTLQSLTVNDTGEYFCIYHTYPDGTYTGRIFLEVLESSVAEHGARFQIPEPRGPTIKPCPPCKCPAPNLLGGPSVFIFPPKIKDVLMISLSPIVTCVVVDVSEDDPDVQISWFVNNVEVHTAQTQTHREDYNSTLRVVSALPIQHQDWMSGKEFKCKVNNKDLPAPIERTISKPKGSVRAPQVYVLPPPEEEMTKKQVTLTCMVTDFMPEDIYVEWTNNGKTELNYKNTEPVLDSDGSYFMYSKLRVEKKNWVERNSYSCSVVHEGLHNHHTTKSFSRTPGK

T3: human PVRIG-his (AcroBiosystems, Cat NO. PVG-H52H4) (human, UniProt Q6DKI7 41-171, limits assumed)
T3 construct: also called human PVRIG protein
T3 sequence (looked up): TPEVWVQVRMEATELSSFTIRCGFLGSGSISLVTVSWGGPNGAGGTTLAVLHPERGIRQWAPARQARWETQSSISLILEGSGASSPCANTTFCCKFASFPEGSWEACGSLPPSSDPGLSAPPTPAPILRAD


How the values were obtained:
[1] = target: T1, Full-length human TIGIT on CHO-K1 cells …; test: FACS; blocking of Bio-CD155-His binding to CHO-K1 human TIGIT cells
How it was run: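 IC50 values in this blocking assay come from inhibition curves. CHO-K1 human TIGIT cells (2×10⁵/40 μL in 1% BSA-PBS) were combined with equal volumes of antibody, a 12-point 3-fold dilution series starting at 210 nM, and biotinylated CD155-His, diluted to 3 μg/mL, for 60 min at 4° C. Ligand binding was detected with APC-streptavidin (1:1700, 40 min, 4° C) and read by flow cytometry on a BD Canto II.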

[2] = target: T1, Full-length human TIGIT on CHO-K1 cells …; test: FACS; CHO-K1 human TIGIT high expression strain
How it was run: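 The EC50 was derived from binding curves obtained by flow cytometry on CHO-K1 cells expressing full-length TIGIT of human or cynomolgus monkey origin. Cells (2×10⁵/50 μL, 1% BSA-PBS) were mixed 1:1 with a 12-point, 3-fold antibody dilution series that began at 80 nM before mixing, then incubated for 60 min at 4° C.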

[3] = target: T2, Fusion protein of extracellular domain …; test: ELISA, human TIGIT ECD-mFc
[4] = target: T4, Fusion protein of extracellular domain of cynomolgus monkey TIGIT and mouse IgG2a Fc fragment (cynomolgus … (cynomolgus monkey)); test: ELISA, cynomolgus monkey TIGIT ECD-mFc
T4 construct: The entry includes the signal peptide (limits not recoverable) and the mouse IgG2a Fc
T4 sequence (chain, as listed by the source limits assumed): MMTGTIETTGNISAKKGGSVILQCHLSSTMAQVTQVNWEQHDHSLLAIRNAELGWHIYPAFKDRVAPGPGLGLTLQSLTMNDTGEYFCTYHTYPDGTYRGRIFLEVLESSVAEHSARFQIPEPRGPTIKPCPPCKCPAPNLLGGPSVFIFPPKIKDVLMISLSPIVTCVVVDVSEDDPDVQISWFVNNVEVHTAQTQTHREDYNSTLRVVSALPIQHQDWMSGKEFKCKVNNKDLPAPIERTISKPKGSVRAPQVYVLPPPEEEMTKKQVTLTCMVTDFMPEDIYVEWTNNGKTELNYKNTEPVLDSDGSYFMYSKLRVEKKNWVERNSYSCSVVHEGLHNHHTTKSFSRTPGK
How it was run: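 Plates blocked with 5% skim milk-PBS at 37° C for 2-4 h. Test antibodies applied as a 12-point 3-fold series from 13 nM for 1.5-2 h at 37° C. Read-out: HRP secondary (1:5000, 1 h, 37° C), TMB colour for 7-10 min at room temperature, acid stop, absorbance at OD450 nm.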

[5] = target: T3, human PVRIG-his (AcroBiosystems, Cat …); test: competition ELISA, PVRIG-His coated, competitor human PVRL2-mFc
Protocol: The ELISA plate was pre-coated with 100 μL/well of 0.5 μg/mL human PVRIG-his protein (AcroBiosystems, Cat NO. PVG-H52H4). The tested anti-PVRIG antibodies were diluted from the highest concentration of 16 nM (two-fold concentration). The diluted antibodies were mixed with 18 ng/ml human PVRL2-mFc (AcroBiosystems, Cat NO. CD2-H5257) in equal volume, added into the plate (100 μL/well), and incubated with shaking at room temperature for 2.0 hours. […] A HRP substrate, TMB (Thermo, Cat NO. 34029) was added into wells after washing the plate again for color development. After adding a termination solution to terminate the reaction, the absorbance value was read by a microplate reader (MD i3×). An inhibiting curve was drawn with concentration of antibodies as the abscissa and the corresponding OD value as the ordinate. The IC50 value was calculated by using a Four Parameter Logistic Fit (GraphPadPrism9). The smaller the IC50 value, the stronger the ability of the antibodies inhibits the binding between PVRIG and PVRL2. The positive and negative controls are the same as in Example 8.

Row | Binder | IC50 [1] | EC50 [2] | EC50 [3] | EC50 [4] | IC50 [5]
1 | TIGIT-002-H4L3 (antibody, V domains shown, Humanized anti-TIGIT antibody) VH: EVQLQESGPGLVKPSETLSLTCAVSGYSITSDSWNWIRQPPGKKLEYIGYISYSGNTYYNPSLKSRVTISRDTSKNQFSLKLSSVTAADTAVYYCARLDFSNYGGAVDYWGQGTTVTVSS VL: DIVMTQSPDSLAVSLGERATINCKASQNVRTAVAWYQQKPGQSPKLMIYSASYRYTGVPDRFSGSGSGTDFTLTISSLQAEDVAVYYCQQYYTTPWTFGGGTKVEIK | 0.137 nM | 0.297 nM | 0.037 nM | 0.0189 nM | –
2 | TIGIT-005-H2L1d (antibody, V domains shown, Humanized anti-TIGIT antibody with NG-site mutation in VL) VH: EVQLVQSGAEVKKPGASVKVSCKASGYAFTNYLIEWVRQAPGQRLEWMGVINPGSGGTNYKEKFKGRVTITADKSSSTAYMELSSLRSEDTAVYYCARGEYFFFDYWGQGTTVTVSS VL: DIVMTQSPDSLAVSLGERATINCKASQHVSNAVAWYQHKPGQSPKLLIYSASYRYTGVPDRFSGSGSGTDFTLTISSLQAEDVAVYYCQQHYNTPHTFGGGTKVEIK | 0.15 nM | 0.321 nM | 0.0311 nM | 0.0403 nM | –
3 | TIGIT-006-H5L3 (antibody, V domains shown, Humanized anti-TIGIT antibody) VH: EVQLQESGPGLVKPSETLSLTCAVSGYSMTSDYWNWIRQPPGKKLEYIGYISYSGRTYYNPSLKSRVTISRDTSKNQFSLKLSSVTAADTAVYYCARGDYSNYGGAMYDWGQGTTVTVSS VL: DIVMTQSPDSLAVSLGERATINCRASQGVSTTIAWYQQKPGQSPKLLIYSASYRYTGVPRFSGSGSGTDFTLTISSLQAEDVAVYYCQQYYSSPFTFGGGTKVEIK | 0.171 nM | 0.443 nM | 0.0319 nM | 0.0132 nM | –
4 | PVRIG-A105 (Fc fusion, heavy chain antibody VHH-hinge-CH2-CH3, human IgG1 constant part; not shown: human IgG1 hinge-CH2-CH3) EVQLVESGGGLVQAGGSLRLSCAASGRTFDRHTMTWFRQAPGKEREFVATASRIPGDTYYSHSVKGRFTISRDNAKNTVYLQLNNLKPEDTAVYYCAATSAYCSEVDCYEKGSWYDNWGQGIQVTVSS | – | – | – | – | 0.0571 nM
5 | TIGIT-070-H1L1 (antibody, V domains shown, Humanized anti-TIGIT antibody) VH: EVQLVQSGAEVKKPGASVKVSCKASGYTFTNYYMHWVRQAPGQRLEWMGRIDPDSGGSKYNEKFKSRVTITVDKSASTAYMELSSLRSEDTAVYYCAREGHYGFYSDYWGQGTTVTVSS VL: DIQMTQSPSSLSASVGDRVTITCRVSENIYSYLAWYQQKPGKSPKLLIYNAKTLAEGVPSRFSGSGSGTDFTLTISSLQPEDFATYYCQHHYGNPLTFGPGTKVDIK | 0.212 nM | 0.494 nM | 0.0284 nM | 0.0123 nM | –
6 | PVRIG-A118 (Fc fusion, heavy chain antibody VHH-hinge-CH2-CH3, human IgG1 constant part; not shown: human IgG1 hinge-CH2-CH3) QVQLVESGGGLVQAGGSLRLSCAASETYFDLYVMGWYRQAPGKDRELVATITYTGSIKIVDSVKDRFTISRGDAKNTVSLQMSSLKPEDTAVYFCNADPSGLGRKVYWGQGTQVTVSS | – | – | – | – | 0.0513 nM
7 | PVRIG-A50 (Fc fusion, heavy chain antibody VHH-hinge-CH2-CH3, human IgG1 constant part; also called PVRIG-50; not shown: human IgG1 hinge-CH2-CH3) EVQLVESGGGLVQPGGSLRLSCAASGFTFSYYDMSWVRQAPGKGLEWVSTINSNGGRTSYVDSVKGRFTISRDNTKNTLYLQMNSLKPEDTAVYYCVEGDPHNFGLENLSLRDFGSWGQGTQVTVSS | – | – | – | – | 0.196 nM
